In PMC3903776, “Structural Characterization of the Mechanosensitive Channel Candidate MCA2 from Arabidopsis thaliana” (PLoS ONE, 2014):

Target: the molecule itself
Test: cross-linking; purified MCA2-6H in PBS with 4% APFO; 10 mM glutaraldehyde, room temperature, up to 30 min, stopped with 50 mM Tris-HCl pH 8.0; reducing SDS-PAGE, CBB staining

B1: MCA2-6H (Arabidopsis thaliana MCA2 with a 6xHis tag fused to the carboxyl terminus) (natural protein, UniProt Q3EBY6 1-416, looked up)
chain: MANSWDQLGEIASVAQLTGIDALKLIGMIVNAANTARMHKKNCRQFAHHLKLIRNLLEQIKNSEMNQRSEILEPLQGLDDALRRSYILVKSCQEKSYLYLLAMGWNIVNQFEKAQNEIDLFLKIVPLINMADNARIRERLEAIERDQREYTLDEEDRKVQDVILKQESTREAATSVLKKTLSRSYPNMGFCEALKTEEEKLQLELQRSRARYDADQCEVIQRLIDVTQTAATVEPNLEKVLTKKEELTSSKKRDDLYDTDSSSIRADSRSTSYVSSGHELLSGRSLQHRGNWHADLLDCCSEPCLCLKTLFFPCGTLAKISTVATSRQISSTEVCKNLIVYSLILSCCCYTCCIRKKLRKTLNITGGCIDDFLSHLMCCCCALVQELREVEIHRASYGTEKSNKEMSPPTPQFMEE
notes: MCA2 of Arabidopsis thaliana, 416 amino acid residues; source: Sf9 cells, baculovirus (Bac-to-Bac), membrane fraction solubilised in APFO, purified (His GraviTrap, Superdex 200 SEC); not shown: 6xHis, C-terminal, kept
- stoichiometry N: 4
